Measurements reported in article PMC3974781.

Target: HA-ASIC2a (mouse acid-sensing ion channel 2a, HA epitope-tagged) (mouse) (UniProt Q925H0)
Sequence of UniProt Q925H0 (Q925H0 whole entry): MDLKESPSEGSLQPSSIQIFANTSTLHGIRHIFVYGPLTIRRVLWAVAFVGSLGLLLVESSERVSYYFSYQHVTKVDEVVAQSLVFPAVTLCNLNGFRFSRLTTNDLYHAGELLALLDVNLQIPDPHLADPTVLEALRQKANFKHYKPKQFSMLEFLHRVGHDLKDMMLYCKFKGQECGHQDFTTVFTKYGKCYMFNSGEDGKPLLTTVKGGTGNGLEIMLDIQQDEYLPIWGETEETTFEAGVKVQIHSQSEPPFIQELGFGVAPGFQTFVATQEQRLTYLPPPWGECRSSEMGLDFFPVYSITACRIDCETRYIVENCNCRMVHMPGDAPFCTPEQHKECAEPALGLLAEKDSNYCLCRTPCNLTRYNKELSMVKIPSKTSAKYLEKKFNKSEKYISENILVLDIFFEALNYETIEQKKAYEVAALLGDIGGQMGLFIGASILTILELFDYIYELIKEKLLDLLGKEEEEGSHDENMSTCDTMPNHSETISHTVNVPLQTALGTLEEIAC

pH50 of activation of acid-evoked currents in CHO cells coexpressing ASIC1a and ASIC2a (whole-cell patch clamp); ASIC1a alone pH50 = 6.7, ASIC2a alone pH50 = 4.0: 5.4 pH
B1: ASIC1a (mouse acid-sensing ion channel 1a) (natural protein)
chain: MELKTEEEEVGGVQPVSIQAFASSSTLHGLAHIFSYERLSLKRALWALCFLGSLAVLLCVCTERVQYYFCYHHVTKLDEVAASQLTFPAVTLCNLNEFRFSQVSKNDLYHAGELLALLNNRYEIPDTQMADEKQLEILQDKANFRSFKPKPFNMREFYDRAGHDIRDMLLSCHFRGEACSAEDFKVVFTRYGKCYTFNSGQDGRPRLKTMKGGTGNGLEIMLDIQQDEYLPVWGETDETSFEAGIKVQIHSQDEPPFIDQLGFGVAPGFQTFVSCQEQRLIYLPSPWGTCNAVTMDSDFFDSYSITACRIDCETRYLVENCNCRMVHMPGDAPYCTPEQYKECADPALDFLVEKDQEYCVCEMPCNLTRYGKELSMVKIPSKASAKYLAKKFNKSEQYIGENILVLDIFFEVLNYETIEQKKAYEIAGLLGDIGGQMGLFIGASILTVLELFDYAYEVIKHRLCRRGKCQKEAKRNSADKGVALSLDDVKRHNPCESLRGHPAGMTYAANILPHHPARGTFEDFTC
